From US20230181756A1 (Novartis, published 2023)

How the values were obtained:
[1] = molecular target: T1, human CCR7 (human, UniProt P32248 25-378); test: cell-based or functional assay
T1 sequence: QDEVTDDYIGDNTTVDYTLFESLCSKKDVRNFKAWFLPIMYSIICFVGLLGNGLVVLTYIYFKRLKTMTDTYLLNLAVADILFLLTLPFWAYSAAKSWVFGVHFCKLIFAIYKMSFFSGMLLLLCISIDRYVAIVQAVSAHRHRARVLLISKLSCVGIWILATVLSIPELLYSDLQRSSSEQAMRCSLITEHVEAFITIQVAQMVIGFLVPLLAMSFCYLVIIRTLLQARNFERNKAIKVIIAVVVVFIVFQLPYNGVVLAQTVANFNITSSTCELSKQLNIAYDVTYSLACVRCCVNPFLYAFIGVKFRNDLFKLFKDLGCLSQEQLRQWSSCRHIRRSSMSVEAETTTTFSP

[2] = molecular target: T1, human CCR7; test: FACS titration, Jeko-1 cancer cells (CCR7+)
[3] = molecular target: T2, rat CCR7 (rat, UniProt P47774 25-378 (mouse entry)); test: FACS titration, NIH3T3 cells expressing rat CCR7
T2 construct: also called NIH3T3.rat CCR7
T2 chain: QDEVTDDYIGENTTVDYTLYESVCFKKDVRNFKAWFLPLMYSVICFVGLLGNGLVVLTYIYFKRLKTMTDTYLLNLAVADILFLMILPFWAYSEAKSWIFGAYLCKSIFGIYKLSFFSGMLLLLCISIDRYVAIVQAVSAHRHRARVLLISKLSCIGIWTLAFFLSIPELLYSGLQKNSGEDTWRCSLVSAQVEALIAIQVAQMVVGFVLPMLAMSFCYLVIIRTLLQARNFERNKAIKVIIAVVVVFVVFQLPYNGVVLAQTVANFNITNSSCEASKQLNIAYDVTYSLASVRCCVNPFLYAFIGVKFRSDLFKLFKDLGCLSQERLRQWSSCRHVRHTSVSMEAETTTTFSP

[4] = molecular target: T1, human CCR7; test: FACS titration, NIH3T3 cells expressing human CCR7
[5] = molecular target: T3, mouse CCR7 (mouse, UniProt P47774 25-378); test: FACS titration, NIH3T3 cells expressing mouse CCR7
T3 construct: also called NIH3T3.mouse CCR7
T3 sequence: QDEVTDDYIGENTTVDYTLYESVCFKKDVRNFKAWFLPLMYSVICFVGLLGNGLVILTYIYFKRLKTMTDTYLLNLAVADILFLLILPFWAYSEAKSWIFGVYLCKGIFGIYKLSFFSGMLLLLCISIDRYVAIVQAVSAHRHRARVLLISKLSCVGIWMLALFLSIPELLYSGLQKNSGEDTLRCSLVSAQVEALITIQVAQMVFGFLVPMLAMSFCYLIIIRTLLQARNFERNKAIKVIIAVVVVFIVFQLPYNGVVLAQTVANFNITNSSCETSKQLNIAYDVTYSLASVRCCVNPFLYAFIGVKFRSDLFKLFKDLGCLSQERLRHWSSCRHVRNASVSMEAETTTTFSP

[6] = molecular target: T1, human CCR7; test: cell-based or functional assay; remark: listed apart in the source
[7] = molecular target: T1, human CCR7; test: FACS titration, DEL cancer cells (receptor density ~100,000)
[8] = molecular target: T1, human CCR7; test: FACS titration, human CD4+ T cells (receptor density <2,000)
[9] = molecular target: T4, recombinant hCCR7 (Origene #TP306614) (human, UniProt P32248 25-378, limits assumed); test: ELISA, recombinant CCR7 coated at 3.5 ug/ml, antibody titrated
T4 construct: Bought protein coated on ELISA plates; also called recombinant CCR7
T4 sequence (looked up): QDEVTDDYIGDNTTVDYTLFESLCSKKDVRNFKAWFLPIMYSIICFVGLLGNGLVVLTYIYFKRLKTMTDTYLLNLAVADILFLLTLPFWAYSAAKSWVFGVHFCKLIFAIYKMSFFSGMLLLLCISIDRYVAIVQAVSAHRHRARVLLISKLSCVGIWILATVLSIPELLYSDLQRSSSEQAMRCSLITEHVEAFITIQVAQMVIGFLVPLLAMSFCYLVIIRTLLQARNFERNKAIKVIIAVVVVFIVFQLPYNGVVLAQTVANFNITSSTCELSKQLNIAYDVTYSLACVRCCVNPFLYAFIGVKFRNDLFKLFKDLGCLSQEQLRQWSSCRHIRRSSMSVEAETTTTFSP

[10] = molecular target: T1, human CCR7; test: FACS titration, NIH3T3.hCCR7 cells (receptor density >1,000,000)
[11] = molecular target: T4, recombinant hCCR7 (Origene #TP306614); test: ELISA on plate-coated recombinant hCCR7, antibody titrated, anti-hFc-HRP detection, OD 650 nm
[12] = molecular target: T1, human CCR7; test: FACS on DEL cells, antibody titrated to 100 nM, panel 'ligand 0uM' (no CCL19), anti-hFc.PE detection
[13] = molecular target: T1, human CCR7; test: FACS on DEL cells, antibody titrated to 100 nM together with a constant 1 uM CCL19 (competitor), panel 'ligand 1uM', anti-hFc.PE detection
[14] = molecular target: T1, human CCR7; test: cell-based or functional assay; remark: listed apart in the source
[15] = molecular target: T1, human CCR7; test: FACS titration, DEL cells (CCR7 receptor levels >=100,000)
[16] = molecular target: T1, human CCR7; test: FACS binding on CCR7 expressing cells, against the unconjugated antibody

Binder	pHrodo (6 h MFI), internalization, CD4+ T cells (receptor numbers 2000) [6]	pHrodo (6 h MFI), internalization, CMLT1 cells (receptor numbers 19583) [6]	pHrodo (6 h MFI), internalization, DEL cells (receptor numbers 110685) [6]	pHrodo (6 h MFI), internalization, JVM3 cells (receptor numbers 8717) [6]	pHrodo (6 h MFI), internalization, Jeko-1 cells (receptor numbers 28852) [6]	pHrodo (6 h MFI), internalization, KE97 cells (receptor numbers 152093) [6]	pHrodo (6 h MFI), internalization, L540 cells (receptor numbers 167549) [6]	pHrodo (6 h MFI), internalization, L1236 cells (receptor numbers 61602) [6]	pHrodo (6 h MFI), internalization, MJ cells (receptor numbers 111121) [6]	pHrodo (6 h MFI), internalization, MOTN1 cells (receptor numbers 84200) [6]	pHrodo (6 h MFI), internalization, Mec2 cells (receptor numbers 50840) [6]	EC50 [7]	EC50 [8]	Kd [9]	EC50 [10]	EC50 (read off the curve) [11]	also measured
684E12 non-humanized CysMab (antibody, human IgG1, kappa, V domains shown, Chimeric human IgG1 kappa with CysMab cysteines and wild type Fc; also called Parental 684E12 hIgG1 CysMab; Non-humanized CysMab antibody 684E12) VH: EVHLVESGGGLVKPGGSLKLSCAASGFTFSNFAMSWVRQTPEKRLEWVATISTGGTYTYYPDSVKGRFTISRDNAKKTLYLQMSSLRSEDTAMYYCTRRGYDGVDKWGQGTTLTVSS VL: not shown																	ADCC activity; IC50 (nM); reporter assay, JVM2 targets and Jurkat-V158 effectors [1]: 2.63 nM; EC50 [2]: 12 nM; binding result [3]: no binding; EC50 [4]: > 30 nM; binding result [5]: no binding
Humanized 506E15.CysMab.DAPA (antibody, human IgG1, kappa, V domains shown, Human IgG1 kappa with D265A/P329A and CysMab cysteines; also called 506E15 (Humanized CysMab DAPA)) VH: EVQLVESGGGLVKPGGSLRLSCAASGFTFSSYAMSWIRQAPGKGLEWVATISSGGSFTYYPDSVKGRFTISRDNAKNSLYLQMNSLRAEDTAVYYCARRASTVVGTDFDVWGQGTTVTVSS VL: DIQMTQSPSSLSASVGDRVTLTCRASQDIGSSLNWLQQKPGKAIKRLIYATSSLDSGVPSRFSGSRSGTDYTLTISSLQPEDFVVYYCLQYASSPPTFGGGTKLEIKR	429 MFI	465 MFI	3060 MFI	238 MFI	908 MFI	2720 MFI	16100 MFI	3130 MFI	3870 MFI	2900 MFI	3090 MFI	3.09 nM	~10 nM	5.73 nM	1.8 nM		
Humanized 674J13.CysMab.DAPA (antibody, human IgG1, kappa, V domains shown, Human IgG1 kappa with D265A/P329A and CysMab cysteines; also called 674J13 (Humanized, CysMab DAPA)) VH: DVQLQESGPGLVKPSQTLSLTCTVSGYSITSGYSWHWIRQHPGKGLEWMAHIHSSGSTNYNPSLKSRITISRDTSKNQFSLKLSSVTAADTAVYYCARGGVQAFAYWGQGTLVTVSS VL: EIVLTQSPATLSASPGERVTMSCSASSSVIYMHWYQQKPGQAPRRWIYDTSKLASGVPARFSGSGSGTDYTLTISSMEPEDAAVYYCQQWSSNPLTFGQGTKLEIKR	402 MFI	561 MFI	3780 MFI	146 MFI	1390 MFI	4420 MFI	11800 MFI	5820 MFI	3260 MFI	2540 MFI	3000 MFI	0.47 nM	~2 nM	0.006 nM	0.64 nM	~0.07 nM	EC50 (read off the curve) [12]: ~2 nM; EC50 (read off the curve) [13]: ~2 nM
Humanized 121G12.CysMab.DAPA (antibody, human IgG1, kappa, Human IgG1 kappa with D265A/P329A and CysMab cysteines; also called 121G12 (Humanized CysMab, DAPA)) heavy: EVQLVESGGGLVKPGGSLRLSCAASGFTFSTYAMSWVRQAPGKGLEWVATISDAGSYSYYPDNVKGRFTISRDNAKNSLYLQMNSLRAEDTAVYYCARRGSRYEEYYVMDYWGQGTTVTVSSASTKGPSVFPLAPSSKSTSGGTAALGCLVKDYFPCPVTVSWNSGALTSGVHTFPAVLQSSGLYSLSSVVTVPSSSLGTQTYICNVNHKPSNTKVDKRVEPKSCDKTHTCPPCPAPELLGGPSVFLFPPKPKDTLMISRTPEVTCVVVAVSHEDPEVKFNWYVDGVEVHNAKTKPREEQYNSTYRVVSVLTVLHQDWLNGKEYKCKVSNKALAAPIEKTISKAKGQPREPQVYTLPPSREEMTKNQVSLTCLVKGFYPCDIAVEWESNGQPENNYKTTPPVLDSDGSFFLYSKLTVDKSRWQQGNVFSCSVMHEALHNHYTQKSLSLSPGK light: EIVLTQSPATLSVSPGERVTLSCRASQSISNNLHWYQQKPGQAPRLLIKYASQSISGIPARFSGSGSGTDFTLTISSVEPEDFGVYFCQQSSSWLTFGQGTKLEIKRTVAAPSVFIFPPSDEQLKSGTASVVCLLNNFYPREAKVQWKVDNALQSGNSQESVTEQDSKDSTYSLSSTLTLSKADYEKHKVYACEVTHQGLSSPVTKSFNRGEC	278 MFI	301 MFI	1910 MFI	148 MFI	450 MFI	1570 MFI	6840 MFI	1240 MFI	1650 MFI	1030 MFI	1340 MFI	1.78 nM	~30 nM	0.677 nM	2.5 nM	~0.6 nM	
121G12.DAPA.sSPDB.DM4 (antibody, human IgG1, kappa, sulfo-SPDB-DM4 on endogenous lysines (sites not defined, may also be on the light chain); DAR 3.6 in Example 4B, DAR 3.9 in Tables 20 and 21, also called 121G12.sSPDB.DM4) heavy: not shown light: EIVLTQSPATLSVSPGERVTLSCRASQSISNNLHWYQQKPGQAPRLLIKYASQSISGIPARFSGSGSGTDFTLTISSVEPEDFGVYFCQQSSSWLTFGQGTKLEIKRTVAAPSVFIFPPSDEQLKSGTASVVCLLNNFYPREAKVQWKVDNALQSGNSQESVTEQDSKDSTYSLSSTLTLSKADYEKHKVYACEVTHQGLSSPVTKSFNRGEC																	ADC activity in cell viability assay; IC50 (nM); DEL cells [14]: 2.98 nM; ADC activity in cell viability assay; IC50 (nM); KE97 cells [14]: 3.18 nM; ADC activity in cell viability assay; IC50 (nM); L540 cells [14]: 3.9 nM; EC50 [15]: 8.42 nM; difference of geometric mean fluorescence intensity from the unconjugated antibody [16]: ≤ 20%
